Assay results reported in article PMC5442324, “Zinc is a potent and specific inhibitor of IFN-λ3 signalling” (Nature Communications, 2017).

What was measured:
IFN-α (Roferon-A) = IFN-α (Roferon-A) (UniProt P01563); experiment: zinc IMAC resin binding and SDS-PAGE; 200 ng IFN-α or IFN-λ3 on IMAC-Select gel charged with ZnSO4, 4 °C, 50 mM NaH2PO4, 300 mM NaCl, pH 8.0; eluted with 100 mM EDTA; SDS-PAGE, SYPRO ruby; bands read as monomer and dimer
[1] = target: the molecule itself; experiment: as above

| stoichiometry N (IFN-α (Roferon-A)) | Molecule | stoichiometry N [1] |
| --- | --- | --- |
| 2 | IFN-α (Roferon-A) (from UniProt P01563 24-188) (ligand) |  |
|  | recombinant human IFN-λ3 (ligand, UniProt Q8IZI9 22-196, looked up, IFN-λ3 (interferon lambda 3), human, recombinant, R&D Systems; (Cys169); also called interferon lambda 3; IFNL3; source: bought: R&D Systems) VPVARLRGALPDARGCHIAQFKSLSPQELQAFKRAKDALEESLLLKDCKCRSRLFPRTWDLRQLQVRERPVALEAELALTLKVLEATADTDPALGDVLDQPLHTLHHILSQLRACIQPQPTAGPRTRGRLHHWLHRLQEAPKKESPGCLEASVTFNLFRLLTRDLNCVASGDLCV | 2 |
